The target of data set [1] is synthetic Aβ40 peptide, P05067.
Data set [2] has as its target synthetic Aβ42 peptide, P05067.

One protein from patent US20210285971 can be followed below.

synthetic Aβ40 peptide, P05067, sequence (P05067 whole entry, looked up, tested part not stated): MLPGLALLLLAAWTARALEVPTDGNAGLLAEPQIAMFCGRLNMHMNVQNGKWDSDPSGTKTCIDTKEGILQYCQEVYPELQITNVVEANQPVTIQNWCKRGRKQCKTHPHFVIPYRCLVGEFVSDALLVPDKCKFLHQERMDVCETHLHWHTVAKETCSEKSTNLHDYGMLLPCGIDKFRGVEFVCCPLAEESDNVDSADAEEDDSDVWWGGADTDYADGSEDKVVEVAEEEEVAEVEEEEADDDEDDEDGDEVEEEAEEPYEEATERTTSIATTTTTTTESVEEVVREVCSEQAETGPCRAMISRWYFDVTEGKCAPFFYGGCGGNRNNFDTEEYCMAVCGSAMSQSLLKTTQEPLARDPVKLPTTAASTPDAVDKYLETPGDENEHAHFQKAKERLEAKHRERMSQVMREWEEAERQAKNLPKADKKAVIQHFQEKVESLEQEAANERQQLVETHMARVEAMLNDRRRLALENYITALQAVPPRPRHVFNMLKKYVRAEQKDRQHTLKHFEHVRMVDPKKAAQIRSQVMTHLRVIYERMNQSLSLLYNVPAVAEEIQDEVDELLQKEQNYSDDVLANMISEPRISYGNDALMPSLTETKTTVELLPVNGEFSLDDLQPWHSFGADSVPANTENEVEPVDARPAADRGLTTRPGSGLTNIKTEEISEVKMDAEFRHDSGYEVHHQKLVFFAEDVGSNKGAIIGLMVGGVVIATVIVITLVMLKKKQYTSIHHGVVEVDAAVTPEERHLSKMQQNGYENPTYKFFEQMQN
synthetic Aβ42 peptide, P05067, sequence (P05067 whole entry, looked up, tested part not stated): as above

B1: BACE1 from Fc purification (protein)
chain: ETDEEPEEPGRRGSFVEMVDNLRGKSGQGYYVEMTVGSPPQTLNILVDTGSSNFAVGAAPHPFLHRYYQRQLSSTYRDLRKGVYVPYTQGKWEGELGTDLVSIPHGPNVTVRANIAAITESDKFFINGSNWEGILGLAYAEIARPDDSLEPFFDSLVKQTHVPNLFSLQLCGAGFPLNQSEVLASVGGSMIIGGIDHSLYTGSLWYTPIRREWYYEVIIVRVEINGQDLKMDCKEYNYDKSIVDSGTTNLRLPKKVFEAAVKSIKAASSTEKFPDGFWLGEQLVCWQAGTTPWNIFPVISLYLMGEVTNQSFRITILPQQYLRPVEDVATSQDDCYKFAISQSSTGTVMGAVIMEGFYVVFDRARKRIGFAVSACHVHDEFRTAAVEGPFVTLDMEDCGYNIPQTDESTLMTIAY
B1: the “cleavage in vitro analyzed by MALDI-MS” value in data set [1] is “cleavage of Aβ40 and Aβ42 by BACE1 in vitro”; in data set [2], “cleavage of Aβ40 and Aβ42 by BACE1 in vitro”.
